Data set [1] relates to Mouse bEnd.3 endothelial cells. Description: PS induction by H2O2. Format: cell-based. As for the experimental part: Mouse bEnd.3 endothelial cells were seeded at an initial density of 50,000 cells/well. Twenty-fours later cells were incubated with increasing concentrations of H2O2 (from 10 μM to 500 μM) for 1 hour at 37° C. or left untreated. At the end of the incubation, cells were washed 3 times with PBS containing 0.2% gelatin and fixed with 0.25% glutaraldehyde. Identical wells were either stained with anti-PS IgM or trypsinized and evaluated for viability by the Trypan Blue exclusion test. For the anti-PS staining, after blocking with 2% gelatin for 10 min., cells were incubated with 2 μg/ml of anti-PS antibody, followed by detection with anti-mouse IgM-HRP conjugate.

In data set [2] the target is recombinant, depyrogenated truncated Tissue Factor (amino acids 1-219), secreted into the periplasm of E. coli from vector pswc7 (human) (UniProt P13726). Nature of the data set: cell-based or functional assay.
In data set [3] the test system is citrated mouse or human plasma. Description: In vitro coagulation assay on A20 cells. It counts as cell-based. The following applies: for concentration at which plasma coagulated in 50 seconds: localized on A20 cells via B21-2/10H10; for coagulation times versus tTF219 and Factor VIIa at the same concentrations: Factor VIIa at 1 nM or greater.
The subject of data set [4] is HT29 human colorectal carcinoma. Nature of the data set: Anti-tumor effects and tumor necrosis, HT29. Particulars: small HT29 tumors, single agents, 24 hours. It counts as in vivo, BALB/c nu/nu mice.
Data set [5] relates to factor X. Nature of the data set: Factor Xa production assay on A20 cells. The following applies: Factors II, VII and IX present. Format: cell-based.

Numbering of substitutions follows the chain as printed. Numbers in names are those of the source.

As for `OO` [H2O2], the “cells with PS at the cell surface” value in data set [1] (concentrations as low as 20 μM) is listed as “about 50%”. In data set [1] (concentrations higher than 100 μM, 1 hour), the “cells with PS translocation” value is roughly 90%. The molecule also displayed a cell viability in data set [1] (low levels of H2O2 (lower than 100 μM)) of 95%.
Regarding Factor VIIa (Sigma) (enzyme), in data set [2], the Factor Xa generation due to Factor VIIa production on bEnd3 cells; stimulation: 0.5 µg/ml LPS; incubation: tTF-VIIa was determined as 6.25 nkat S2222, the Factor Xa generation due to Factor VIIa production on bEnd3 cells; stimulation: 0.5 µg/ml LPS; tTF-VIIa minus sTF is 3.25 nkat S2222, the Factor Xa generation due to Factor VIIa production on bEnd3 cells; stimulation: TNFα; incubation: tTF-VIIa was 2.93 nkat S2222 and the Factor Xa generation due to Factor VIIa production on bEnd3 cells; stimulation: TNFα; tTF-VIIa minus sTF was found to be 1.02 nkat S2222. In addition, in data set [2], the Factor Xa generation due to Factor VIIa production on bEnd3 cells; stimulation: medium; incubation: tTF-VIIa came to 0.95 nkat S2222, the Factor Xa generation due to Factor VIIa production on bEnd3 cells; stimulation: medium; tTF-VIIa minus sTF worked out at 0.25 nkat S2222, the Factor Xa generation on bEnd3 cells; stimulation: 0.5 µg/ml LPS; incubation: tTF-VIIa was determined as 3.35 nkat S2222 and the Factor Xa generation on bEnd3 cells; stimulation: 0.5 µg/ml LPS; tTF-VIIa minus sTF (background subtracted) is 1.35 nkat S2222. Also, in data set [2], the Factor Xa generation on bEnd3 cells; stimulation: 10 µg/ml LPS; incubation: tTF-VIIa turned out to be 4.46 nkat S2222, the Factor Xa generation on bEnd3 cells; stimulation: 10 µg/ml LPS; tTF-VIIa minus sTF (background subtracted) was found to be 1.55 nkat S2222, the Factor Xa generation on bEnd3 cells; stimulation: TNFα; incubation: tTF-VIIa was 1.51 nkat S2222 and the Factor Xa generation on bEnd3 cells; stimulation: TNFα; tTF-VIIa minus sTF (background subtracted) worked out at 0.84 nkat S2222. Besides, in data set [2], the Factor Xa generation on bEnd3 cells; stimulation: medium; incubation: tTF-VIIa was determined as 0.56 nkat S2222 and the Factor Xa generation on bEnd3 cells; stimulation: medium; tTF-VIIa minus sTF (background subtracted) was 0.16 nkat S2222.

B1: H6-tTF219-cys-C′: (His)6 tTF219 with a Cys after amino acid 219 (protein)
chain: HHHHHHAMALVPRGSGTTNTVAAYNLTWKSTNFKTILEWEPKPVNQVYTVQISTKSGDWKSKCFYTTDTECDLTDEIVKVKQTYLARVFSYPAGNVESTGSAGEPLYENSPEFTPYLETNLGQPTIQSFEQVGTKVNVTVEDRTLVRRNNTFLSLRDVFGKDLIYTLYYWKSSSSGKKTAKTNTNEFLIDVDKGENYCFSVQAVIPSRTVNRKSTDSPVECMGQEKGEFREC
Turning to B1, the “concentration at which plasma coagulated in 50 seconds” value (shortened to “concentration … in 50 seconds”) in data set [3] is 3000 pM.

B2: tTF220-cys-C′: tTF with Ile-Cys after amino acid 219, without (His)6 tag (protein)
chain: GSGTTNTVAAYNLTWKSTNFKTILEWEPKPVNQVYTVQISTKSGDWKSKCFYTTDTECDLTDEIVKDVKQTYLARVFSYPAGNVESTGSAGEPLYENSPEFTPYLETNLGQPTIQSFEQVGTKVNVTVEDERTLVRRNNTFLSLRDVFGKDLIYTLYYWKSSSSGKKTAKTNTNEFLIDVDKGENYCFSVQAVIPSRTVNRKSTDSPVECMGQEKGEFREIC
Consider B2, for which, in data set [3], the “concentration … in 50 seconds” value is 500 pM.

B3: tTF219 (G164A): tTF219 with amino acid 164 (Gly) replaced by Ala (protein)
chain: GSGTTNTVAAYNLTWKSTNFKTILEWEPKPVNQVYTVQISTKSGDWKSKCFYTTDTECDLTDEIVKDVKQTYLARVFSYPAGNVESTGSAGEPLYENSPEFTPYLETNLGQPTIQSFEQVGTKVNVTVEDERTLVRRNNTFLSLRDVFGKDLIYTLYYWKSSSSAKKTAKTNTNEFLIDVDKGENYCFSVQAVIPSRTVNRKSTDSPVECMGQEKGEFRE
With B3, in data set [4], the “necrosis in tumor sections” value is listed as “some necrosis”. Moreover, in data set [3], the “coagulation times versus tTF219 and Factor VIIa at the same concentrations” value is “only marginally slower coagulation times”.

B4: tTF219 (W158R) (protein)
chain: B3 chain with W159R, A165G
In the case of B4, in data set [3], the “coagulation times versus tTF219 and Factor VIIa at the same concentrations” value is recorded as “only marginally slower coagulation times”.

B5: tTF221-cys-C′: tTF with Ile-Phe-Cys after amino acid 219, without (His)6 tag (protein)
chain: GSGTTNTVAAYNLTWKSTNFKTILEWEPKPVNQVYTVQISTKSGDWKSKCFYTTDTECDLTDEIVKDVKQTYLARVFSYPAGNVESTGSAGEPLYENSPEFTPYLETNLGQPTIQSFEQVGTKVNVTVEDERTLVRRNNTFLSLRDVFGKDLIYTLYYWKSSSSGKKTAKTNTNEFLIDVDKGENYCFSVQAVIPSRTVNRKSTDSPVECMGQEKGEFREIFC
On to B5, for which the “concentration … in 50 seconds” value in data set [3] came to 500 pM.

B6: H6-tTF220-cys-C′: tTF219 mutated to encode Ile-Cys after amino acid 219, (His)6 tag (protein)
chain: HHHHHHAMALVPRGSGTTNTVAAYNLTWKSTNFKTILEWEPKPVNQVYTVQISTKSGDWKSKCFYTTDTECDLTDEIVKDVKQTYLARVFSYPAGNVESTGSAGEPLYENSPEFTPYLETNLGQPTIQSFEQVGTKVNVTVEDERTLVRRNNTFLSLRDVFGKDLIYTLYYWKSSSSGKKTAKTNTNEFLIDVDKGENYCFSVQAVIPSRTVNRKSTDSPVECMGQEKGEFRE
For the molecule B6, the “concentration … in 50 seconds” value in data set [3] is 500 pM.

B7: H6-tTF221-cys-C′ dimer: chemically conjugated disulfide dimer of H6-tTF221-cys-C′ (protein)
chain: B6 chain
With B7, in data set [3] (less active), the “reduction of coagulation-inducing activity relative to monomer / tTF219” value is recorded as 4 fold.

B8: Factor VIIa: recombinant human Factor VIIa (protein)
light: ANAFLEELRPGSLERECKEEQCSFEEAREIFKDAERTKLFWISYSDGDQCASSPCQNGGSCKDQLQSYICFCLPAFEGRNCETHKDDQLICVNENGGCEQYCSDHTGTKRSCRCHEGYSLLADGVSCTPTVEYPCGKIPILEKRNASKPQGR
heavy: IVGGKVCPKGECPWQVLLLVNGAQLCGGTLINTIWVVSAAHCFDKIKNWRNLIAVLGEHDLSEHDGDEQSRRVAQVIIPSTYVPGTTNHDIALLRLHQPVVLTDHVVPLCLPERTFSERTLAFVRFSLVSGWGQLLDRGATALELMVLNVPRLMTQDCLQQSRKVGDSPNITEYMFCAGYSDGSKDSCKGDSGGPHATHYRGTWYLTGIVSWGQGCATVGHFGVYTRVSQYIEWLQKLMRSEPRPGVLLRAPFP
In the case of B8, the “necrosis in tumor sections” value in data set [4] is listed as “some necrosis”.

B9: Fab′-H6—N′-cys-tTF219: Fab′-SS-tTF conjugate (conjugate)
chain: HHHHHHAMALVPRGSCGTTNTVAAYNLTWKSTNFKTILEWEPKPVNQVYTVQISTKSGDWKSKCFYTTDTECDLTDEIVKDVKQTYLARVFSYPAGNVESTGSAGEPLYENSPEFTPYLETNLGQPTIQSFEQVGTKVNVTVEDERTLVRRNNTFLSLRDVFGKDLIYTLYYWKSSSSGKKTAKTNTNEFLIDVDKGENYCFSVQAVIPSRTVNRKSTDSPVECMGQEKGEFRE
modifications: left off: another chain or arm of the molecule; large carriers
Regarding B9, the “Xa formation relative to H6—N′-cys-tTF219” value in data set [5] was “as active as H6—N′-cys-tTF219 itself”.

(Values after patent US20030129193A1 (priority 2001, published 2003).)
